PMC4525163, “Assembly-driven activation of the AIM2 foreign-dsDNA sensor provides a polymerization template for downstream ASC” (Nature Communications, 2015)
Residue numbers refer to the chain shown, from its start. Numbers in names are those of the source.

How the values were obtained:
[1] = target: the molecule itself; test: negative-stain electron microscopy; dsDNA-free AIM2FL variants at 2 uM adsorbed to carbon grids, stained with 1% uranyl formate or uranyl acetate; filaments
[2] = target: the molecule itself; test: negative stain electron microscopy; purified protein incubated 30 min with λdsDNA (wild type also with supercoiled and nicked circular plasmids), 160 mM KCl; filament formation on dsDNA

B1: E147A-AIM2FL (natural protein, UniProt O14862 1-343, looked up)
chain: MESKYKEILLLTGLDNITDEELDRFKFFLSDEFNIATGKLHTANRIQVATLMIQNAGAVSAVMKTIRIFQKLNYMLLAKRLQEEKEKVDKQYKSVTKPKPLSQAEMSPAASAAIRNDVAKQRAAPKVSPHVKPEQKQMVAQQESIRAGFQKRCLPVMVLKAKKPFTFETQEGKQEMFHATVATEKEFFFVKVFNTLLKDKFIPKRIIIIARYYRHSGFLEVNSASRVLDAESDQKVNVPLNIIRKAGETPKINTLQTQPLGTIVNGLFVVQKVTEKKKNILFDLSDNTGKMEVLGVRNEDTMKCKEGDKVRLTFFTLSKNGEKLQLTSGVHSTIKVIKAKKKT
notes: AIM2 (absent-in-melanoma-2), full length, residues 1-343, with E147A in the HIN200 domain; source: E. coli ER2566, purified (amylose resin, HiTrap-SP, TEV cleavage, gel filtration); not shown: MBP, N-terminal, cleaved
[1]
  binding result: binds

B2: L10A-L11A-AIM2^FL (natural protein, UniProt O14862 1-343, looked up)
chain: B1 chain with L10A, L11A, A147E
notes: AIM2 (absent-in-melanoma-2), residues 1-343, mutations in the PYD; Probably with the MBP tag removed as for wild-type AIM2^FL; source: E. coli ER2566, purified
[2]
  binding result: binds

B3: Q258A-AIM2FL (natural protein, UniProt O14862 1-343, looked up)
chain: B1 chain with A147E, Q258A
notes: AIM2 (absent-in-melanoma-2), full length, residues 1-343, with Q258A in the HIN200 domain; source: E. coli ER2566, purified (amylose resin, HiTrap-SP, TEV cleavage, gel filtration); not shown: MBP, N-terminal, cleaved
[1]
  binding result: binds

B4: T50A-AIM2FL (natural protein, UniProt O14862 1-343, looked up)
chain: B1 chain with T50A, A147E
notes: AIM2 (absent-in-melanoma-2), full length, residues 1-343, with T50A in the PYD; source: E. coli ER2566, purified (amylose resin, HiTrap-SP, TEV cleavage, gel filtration); not shown: MBP, N-terminal, cleaved
[1]
  binding result: binds

B5: I46D mutant of full-length AIM2 (natural protein, UniProt O14862 1-343, looked up)
chain: B1 chain with I46D, A147E
notes: AIM2 (absent-in-melanoma-2), residues 1-343, mutation in the PYD; Probably with the MBP tag removed as for wild-type AIM2^FL; source: E. coli ER2566, purified
[2]
  binding result: binds
